Experimental findings from US20090269336A1 (TAIWAN LIPOSOME, published 2009) are described below.

The target in test [1] is T1, recombinant VEGF3-114 (human, UniProt P15692 209-320).
T1 sequence: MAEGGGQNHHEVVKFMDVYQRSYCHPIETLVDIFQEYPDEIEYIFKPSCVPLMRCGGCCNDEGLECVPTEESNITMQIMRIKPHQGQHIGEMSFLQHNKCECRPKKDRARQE
Put plainly: cell-based or functional assay.

Test [2] deals with T1, recombinant VEGF3-114. Put plainly: competitive ELISA: VC300 mAb equilibrated with soluble VEGF3-114, then added to wells coated with VEGF3-114. As for the experimental part:
The VC300 mAb was purified from mice ascites by ammonium sulfate precipitation and CM Sepharsoe chromatography (GE Healthcare, Piscataway, N.J.). The purified VC300 mAb was analyzed by 7.5% SDS-PAGE and the protein concentration was quantitated by the absorbance at 280 nm. Isotype determination of VC300 mAb was carried out by a monoclonal antibody isotyping kit I obtained from PIERCE (Rockford, Ill., USA). The dissociation constant (Kd) of antigen-antibody interaction was determined by competitive ELISA [Lin et al., (1997) Anal. Biochem., 254: 9-17]. In brief, the antigen, VEGF₃₋₁₁₄, at various concentrations was incubated with the antibody, VC300 mAb at 4° C. for overnight to reach equilibrium. The mixtures were transferred to the wells coated with 3 μg/ml of VEGF₃₋₁₁₄ and incubated at room temperature for 1 h. […] Absorbance at 450 nm was measured and the Kd value was calculated as described previously.
On the technique in general: An ELISA detects its analyte on a solid surface through an enzyme-linked reagent.

In another test the target is T2, VEGF3-100 (human, UniProt P15692 209-306).
T2 construct: Truncated VEGF fragment expressed in E. coli as a fusion protein detected by anti-penta-His
T2 sequence: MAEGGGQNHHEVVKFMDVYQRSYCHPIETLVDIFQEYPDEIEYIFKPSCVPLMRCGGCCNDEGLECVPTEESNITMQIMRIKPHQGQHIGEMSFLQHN
Put plainly: Western blot of E. coli lysates. On the procedure: (§1) To elucidate the binding epitope of VC300 mAb, the VEGF₃₋₁₁₄ (SEQ ID NO: 8) and five VEGF fragments, VEGF₃₋₃₃, VEGF₃₋₆₃, VEGF₃₋₉₃, VEGF₃₋₁₀₀, and VEGF₃₋₁₀₇ (see FIG. 1B), were used in the mapping. Nucleotide sequences of all these constructs were verified by DNA sequencing. Expression profiles of fusion proteins were analyzed by 12.5% SDS-PAGE and Western blot analysis with anti-penta-His monoclonal antibody (Qiagen, Valencia, Calif.). The lysates were used in verification of the binding epitope of VC300 mAb.
(§2) E. coli cells containing various truncated fragments of VEGF cDNA in expression vector were induced to express recombinant proteins with 0.4 mM isopropyl-β-D-thiogalactopyranoside (IPTG, Sigma-Aldrich, St. Louis, Mo.) at 37° C. for 3 h and the cells were harvested by centrifugation at 10,000 rpm for 2 min. The cell pellets were suspended and lysed with protein sample buffer, boiled for 10 min and analyzed by a 12.5% SDS-PAGE. For Western blot analysis, the gels were electroblotted onto PVDF membranes and the membranes were blocked with 5% skim milk in phosphate-buffered saline, pH 7.4 containing 0.05% Tween 20 at RT for 1 h, probed with a 1:1000 dilution of anti-penta-His monoclonal antibody or VC300 mAb followed by reaction with HRP-conjugated goat anti-mouse immunoglobulin (Chemicon Int., Temecula, Calif.). The binding reaction was detected by the addition of the diaminobenzidine (Sigma-Aldrich, St. Louis, Mo.) color development reagent, 0.05% diaminobenzidine, 0.005% hydrogen peroxide in 0.1 M Tris-HCl, pH 7.4.
For orientation: A western blot detects proteins with antibodies after separation by electrophoresis.

The target of a further test is T3, VEGF3-33 (human).
T3 construct: Truncated VEGF fragment expressed in E. coli as a fusion protein detected by anti-penta-His; Tested denatured in cell lysate by Western blot
T3 chain: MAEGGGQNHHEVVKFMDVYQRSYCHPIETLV
As to the kind of experiment: Western blot of E. coli lysates. As for the experimental part: as §1, §2

The target in the next test is T4, VEGF3-63 (human, UniProt P15692 209-269).
T4 construct: Truncated VEGF fragment expressed in E. coli as a fusion protein detected by anti-penta-His
T4 sequence: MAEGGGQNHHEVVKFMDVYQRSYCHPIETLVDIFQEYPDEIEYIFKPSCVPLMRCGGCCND
Put plainly: Western blot of E. coli lysates. As for the experimental part:
as §1, §2

In a further test the target is T5, VEGF3-93 (human, UniProt P15692 209-299).
T5 construct: Truncated VEGF fragment expressed in E. coli as a fusion protein detected by anti-penta-His
T5 sequence: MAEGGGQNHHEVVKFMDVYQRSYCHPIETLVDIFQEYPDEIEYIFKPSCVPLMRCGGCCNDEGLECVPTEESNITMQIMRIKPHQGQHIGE
As to the kind of experiment: Western blot of E. coli lysates. On the procedure: as §1, §2

B1: VC300 mAb (antibody, IgG1, V domains shown)
VH: EIQLLQSGPELVKPGASVKISCKASGYSFTGYFMNWVMQSHGRTLEWIGRINPYTGETLYNQKFKDKATLTAEISSSTAHMELRSLASDDSAVYFCARRGYAGSGGIYSMDSWGPGTSVTVSS
VL: EIVLTQSPAIMSASLGERVTMTCTASSAVSSSYLHWYHQKPGSSPKLWIFSTSNLASGVPSRFTGSGSGTSYSLTISSVEAEDAATYYCHQYHRSPYTFGAGTKLELN
notes: Mouse hybridoma antibody (BALB/c), purified from mouse ascites; isotype determined to be IgG1; constant regions are not; also called anti-VEGF monoclonal antibody
Turning to B1, the “IC50 of inhibition of VEGF-induced HUVEC proliferation (BrdU incorporation, 13.6 ng/ml VEGF3-114)” value with recombinant VEGF3-114 [1] was around 1 nM. Moreover, the Kd (usually the constant that tells how readily two partners part at equilibrium) with recombinant VEGF3-114 [2] is around 2 nM. The binding result with VEGF3-100, with VEGF3-33, in the test with VEGF3-63 and with VEGF3-93 was “no binding (tested: 1:1000 dilution of VC300 mAb)” throughout.
